From patent US20190040115A1 (IMMATICS BIOTECHNOLOGIES, published 2019)

Target: T1, HLA-A*02:01 (human)
T1 construct: captured on streptavidin plates; also called peptide-receptive MHC molecules
Assay: UV peptide exchange ELISA (anti-b2m); yield grade: + >10%, ++ >20%, +++ >50, ++++ >75%
Description: Candidate peptides for T cell based therapies according to the present invention were further tested for their MHC binding capacity (affinity). The individual peptide-MHC complexes were produced by UV-ligand exchange, where a UV-sensitive peptide is cleaved upon UV-irradiation, and exchanged with the peptide of interest as analyzed. Only peptide candidates that can effectively bind and stabilize the peptide-receptive MHC molecules prevent dissociation of the MHC complexes. To determine the yield of the exchange reaction, an ELISA was performed based on the detection of the light chain (β2m) of stabilized MHC complexes. The assay was performed as generally described in Rodenko et al. (Rodenko et al., 2006).
96 well MAXISorp plates (NUNC) were coated over night with 2 ug/ml streptavidin in PBS at room temperature, washed 4× and blocked for 1 h at 37° C. in 2% BSA containing blocking buffer. Refolded HLA-A*02:01/MLA-001 monomers served as standards, covering the range of 15-500 ng/ml. Peptide-MHC monomers of the UV-exchange reaction were diluted 100 fold in blocking buffer. Samples were incubated for 1 h at 37° C., washed four times, incubated with 2 ug/ml HRP conjugated anti-β2m for 1 h at 37° C., washed again and detected with TMB solution that is stopped with […]. Absorption was measured at 450 nm. Candidate peptides that show a high exchange yield (preferably higher than 50%, most preferred higher than 75%) are generally preferred for a generation and production of antibodies or fragments thereof, and/or T cell receptors or fragments thereof, as they show sufficient avidity to the MHC molecules and prevent dissociation of the MHC complexes.

| Binder | peptide exchange yield [%] |
| --- | --- |
| GLFPSNFVTA | > 75 |
| ALDDISESI | > 75 |
| GLCDSIITI | > 75 |
| TLDGNPFLV | 50 to 75 |
| RLMANPEALKI | 50 to 75 |
| ALFFQLVDV | 20 to 50 |
| ALIEVLQPLI | > 75 |
| SIIPPLFTV | > 75 |
| KVLGDVIEV | > 75 |
| KLLAATLLL | > 75 |
| TLLESIQHV | > 75 |
| GVVHGVATV | > 75 |
| KLKEAVEAI | 20 to 50 |
| KVSGVILSV | > 75 |
| FLPAGIVAV | > 75 |
| ALDDIIYRA | 50 to 75 |
| TLLEGLTEL | 50 to 75 |
| VLDSVDVRL | > 75 |
| TLYEQEIEV | > 75 |
| ILWDTLLRL | > 75 |
| FAYDGKDYIA | > 75 |
| ALDDTVLQV | 50 to 75 |
| SLADVVDTL | > 75 |

| Binder | peptide exchange yield [%] |
| --- | --- |
| KLAEALYIA | 50 to 75 |
| GLIDLEANYL | > 75 |
| SVALVIHNV | > 75 |
| FLDSLIYGA | > 75 |
| VLFSSPPVILL | > 75 |
| ILADATAKM | > 75 |
| FLDHEMVFL | > 75 |
| SLPRPTPQA | 50 to 75 |
| VVVDPIQSV | 50 to 75 |
| KALQFLEEV | > 75 |
| VLAVLGAVVAV | 50 to 75 |
| YLDKMNNNI | > 75 |
| KLFTQIFGV | > 75 |
| ALDEPTTNL | 50 to 75 |
| TLDDIMAAV | 50 to 75 |
| IAAGIFNDL | 10 to 20 |
| ALEPIDITV | 50 to 75 |
| ALDSGFNSV | > 75 |
| EVVDKINQV | 10 to 20 |
| AIHTAILTL | 20 to 50 |
| LLEEINHFL | 50 to 75 |
| VLLGENVEL | 50 to 75 |
| VISPHGIASV | > 75 |

| Binder | peptide exchange yield [%] |
| --- | --- |
| SLIDRTIKM | 50 to 75 |
| RVAFKINSV | 50 to 75 |
| FLNEDISKL | 50 to 75 |
| RMDEEFTKI | 50 to 75 |
| SLKSKVLSV | > 75 |
| LLYEDIPDKV | 50 to 75 |
| VQIGDIVTV | > 75 |
| YSDDIPHAL | 20 to 50 |
| SILDGLIHL | 50 to 75 |
| LLPELRDWGV | 50 to 75 |
| FMYNFQLVTL | 20 to 50 |
| FLPFLTTEV | > 75 |
| LLKDSIVQL | 50 to 75 |
| LLDPTNVFI | > 75 |
| VLMEMSYRL | 50 to 75 |
| EVISKLYAV | 50 to 75 |
| TLLHFLAEL | > 75 |
| NMMSGISSV | 50 to 75 |
| STLHLVLRL | 50 to 75 |
| FLDSEVSEL | 50 to 75 |
| SAAEPTPAV | 50 to 75 |
